Assay: label from the status in PepcDB records
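Also: failed if final PepcDB status was selected cloned or expressed and not failed if soluble or beyond.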

Row | Sequence | protein production
1 | MSYKVLPLSEVMSHEFGLIEGNFHNISEADIASAIPSHLTFEQLKQHLYEGNLALVSDTPQTPALLSYNDPIGPKTWRLNSEVISELSDDAANNLLAITKTTRATGGYRSCIGETSTLERVYTPQPIATESEEEITKEFEYSFEVGCSDATIKKMVHSDFALAKTEKENAVTRWEQTNTEQGTRYTALCVFDEPKRLNIHIADDNLGLTPLEAVTLQKAGSCKTDEGFIPVVPAVRLGERLGLPTEGYYYHFNDGELVQEYKILGEEKWAFYATQSTQDKLNDERGFTKDQSAILVYWKLADQIIENQYIIYLERQITREELDNLSEDWLCENGIKLDIPALFDAVKQPEEARSEGNNDETQAEQTAATHTVTVGEDWQSIAELYGMGAKALLLLNPVFEADPLSLAVGDEIIVAEKQQQQAPDKKNTFPPLRPQTYNNIRNSHYQHSDPLLGLTKYRAINTADCIEGDVVILNLKDATSSIVFAKSCTRPEGCIEIGDQQESISNFGPWSFFFAQANANPAAVIPAIQATQAQMAMGSSAAVAGSPEQMQQTQTAAMQLDKLAGTLKEKIVEGYRWQVEGIGALFAMQQSLFGDNTQYTDQDLRQVTTAQSRVRVHITEPQGGEFYPHVQGYHVDDTRIPIKYVKQGNNGQLSVAIEENGPTIYWTPEENGEASWQTTPDHSDGFEKDDILVTPIHSDSDANVTVTPAPEEKDWRDAILVFPESSGIAPLYVVYKESPRDKPGVVTGKGEDIFGIWLADAGKDLGAPIPSQIADKLRGREFSSFDAFREGFWYAVGEDQTLINQFSRANQRLIKRGRSPFSLPSEQVGGRQRYELHHKEEIQYGGEVFHVDNLCVLTPKRHISIHKDQ | failed
2 | MSAMGAGPDHLFNLRNNFYLGAYQTAINNSEIANLSPENAVERDCLVFRSYIALGSYQLVISEIDESAATPLQAVKLLAMYLSTPQNKESTISSLKEWLADSTIGNNDTLRLIAGIIFMHEEDYNETLKHTHAGGTMDLYALNVQIFIKMHRAEYAEKQLRVMQQIDEDHTLTQLASAWLNLAVGGSKIQEAYLIFEDFSEKYPMTCLILNGKAVCCMQMGNFDEAETLLLEALNKDAKDPETLANLVVCSLHVGKSSSRHLSQLKLSHPEHILVKRVSSAEDNFERAVQLVA | failed
3 | ASKAFYSAGDKLFQPGDDAVASMQTYSVAQFLQPFTLNPAKASSDYLGKWVKVRGVIVDIRRKSGIAGSYYFIVTMRDEQNKTDKRLTFNFGSHNSADVEALSNGSVATIVGQVHQVQDSTIPTLQNPKVVK | not failed
4 | MITRLVLATAGAAVALGLPADVRAYEYEQEATTKLMTDMIVDLGGHDTVRRNSGKTVRCGDGGTRRVSIVRRGATTTYRGDYRNCRERGLTRDGFYEIVFKGDEIVSSTSKRSVNGELFDAAMAGNAAGVRKLIRARADVNYTESVDRTEGGTIDGVSPLMVATMAGSLDTVKLLVANGAWVNYLNSMAVNALWIAAHNGHPEIVRYLAGRGAYLNNSNVEDVTPLMAAAMNGHLAVVKFLVGAKADINAVHRDGDTALMFALAQNRTDIARFLIDAGADVAVRNRHGVTALLIAVAEGNEEIVRALLERKADVSVRTADGKSALDVARARGMDGIAKLLEAAGSY | failed
5 | MSDIRMRADIAADGLTDRPPDRLADEPAEELSHGLLEGLSKEPADELADSPFLLDEPPDYFEDFLLFIFTLMKTTSCLGVAKTTHKLFLCVEPTKEKVAFSDKATSFSAPIEILLFNLDPPSIQGYLRRPLSLKDLHISSARIIDAPLLKPNG | failed
6 | MSGTRHQIVVALGDTRYRVDRPFGTWPQTAGKVSDVVVLRDGRVLVLLRSDPYVDPDGPRVIVLSCDGDYLGAWGDLDIADAHLMTPAPDGRLFIVDRDMHEIIVFSADGQRVGGIGTRGAPGTPFNHPTDVAFAPSGDFYVSDGYAGWHVHRFAGDGTHLATWGAFGSGRGEFLEPHSLWCLPDGRVVVVDRCNNRLQVFDADGVFLDEWTGFHRAVGIWGDDAGDIFVSDQVPSLHRISQNGTRLGRARPVLNGAHGIFGSPDGTIYLAEANPSRVSRLTPL | failed
7 | MKFEILQQLNAERAARRPAIVVTDTATGAQRLVKAADIAADPLAAELGKQLRMGKSASIEIDGRKLFLNVYAPTAKLVIVGAVHISQALAPLARSLGYDVTVVDPRTAFASPERFPDVPLIAEWPDVALPPLNIDHYTAFVALTHDPKIDDPALLHAFARDCFYIGALGSKKTHAKRLERLKGQGASDADLGRIHAPIGLAIGAVSPSEIAVSIMAEITAALRLPASSKAAAA | failed
8 | MTSDIKAILEQVVISPDVPIAEAIAQLDRAGTGSLVVCSADKKLYGLLTDGDVRRALLKAVDMGAPCGDIANRKPVITFVPLLPIEALRLMNHHDINHLPVLDAEGRVVDFLLRRDLVAEDELAARARRRLDSVVIPCSASIAEAIAQLDRAGTGALVLCSEGDRLHGLLTDGDIRRAVLRGISLDAPCQDVASRRPVTVEPSFSAAQALHLMNQHDINHLPVVDDTGRVVDFLLRRDLIADDQLNLSAVVMAGGYGKRLLPLTEQVPKPMLPVGDRPLLERTIDQLRRSGIREVNLTTHYLPDSIVEHFGDGDSFGVKLNYLKEDHPLGTAGGLKLMKKASDPFLVMNGDILTGVPFQEMFAYHRKNGAEITVGVRKYEVQVPFGVVECDDVRITGLKEKPSLTFFINAGIYLLEPSVCDLIPEGERFDMTDLIQKLLDEGRSVVSFPIMEYWLDVGRHEDYQKAQEDVRSGKIQLEHHHHHH | failed
9 | MPSPVLIAIDASPASSTLLTLARRYCRPGEHELHVLLAIDSTFAVHEQPAPYTAEELEEYPAACQEQQHADHAVAEAVRELQQAGFASQGCMVAGLPVEAIVTKAQELNCELIIMGHRHLSRLGRLLDPSISAKVIDRVDMPVLV | failed
10 | MAEDTYEEECDYLFKAVLIGDSAVGKSNLLSRFSKDEFRFDSKPTIGVEFAYRNVHVGDKIIKAQIWDTAGQERFRAITSSYYRGALGALLIYDITRRTTFDNIKKWLFELRDFANPETVVVLVGNKSDLRQSREVEEDEGKTLAESEGLYFLETSALENVNVEEAFLVMIGRIHEVVTQRIASENKSNGAATPHINGNGNGTVLPVGKEIVNIHEVTATQPLLSSSSNCCFK | failed
11 | MTISYPAKEFLQTIFKTPYLKNLYLSPTMSIYDTLIGSPATTLKRYLLKSDVAVMYTSPSTYVENEDSSFRFNQNCSPMPPWVLGTKSKTIINTLPPKKSHKRTNTDIIGIHSMTSQNSSGSSYFQLLDLLADLGELIYDDEAMKGFYYEFMNLDNKNAFNNDENLNNLMITFTNLGGASNANESGLKIGATTSGVKTKVDEDIEPLCRHYKCATMDSSFIHWITHWNLLDQVFSSNFVGEGEYYTDPNEVKRILENRDLDTRSKQGKSLYIVDLEGSVRIHVMVNTSLYGMIVLLEVRHITLAKKKNDVDDEREQENEDSS | failed
12 | MNNTPVEPVRLTPDNPLVSVVIRTKDRPKRLAEAVRSVREQTHRPLEVIVVNDGGWPLPEEALKEQAGDVELILIQLEQNQGRSIAANTGLQAATGRYLCFLDDDDRFLPDHIELLSSCLEHIEHRVCYSDAELCWQVYNVETGEFDIVNRQVFGSRDFNLAELLCGNYIPLNTLLFDRQVLLQVGGFDPQFDIYEDWDLLLRVGSLYPFYHLPRVTAQYNQWSKDHQNFYNHFSQTGQAPLLHITGYDRLIEKNRHLFSADAARHLLSVINRLRAIEAELAQRDAVPAESPLTRLTAQLEQTLATIGPSFATLEGRLADLDACQRDALVSATSKLNEGVSDLDGLRSQVAHLCMEFENASGKIDTSQAELQKTATLLVQTQNLLEDYRKEIARTTELNRLISERDSELRTLRQTIARNEAEITALHKERNEANATISALDEKVAHAETEKASLHQIIAQTEARLASVYGSTSWRIAAPLRAVSVAVRWLLRNTRRAFLLMWWLCTGQYARATNHAFPHLWRHVPPRLKMIIPPRLAGSVKRRLHLADITAPRPLENQPDNSHPDTTAEAHVTLDVPERHYVDLSSEPVAHTPIKAIAFYLPQFHTIPENDKWWGEGFTEWTNTRKGKPLFDGHHQPRVPLHLGYYNLENIEVYAQQVQLARKAGLYGFCFYFYWFGGKTLLEKPLLNMLANPQIDQPFCLCWANENWTRRWDGLDDDILIAQHHSEEDAIAFLRYINTYFRDDRYIKIDGKPLLLVYRPSIIPDITHIQEVWRKHATELGWPGIYLVSAQTFGQKDPRDFHFDAAVQFPPQHAAPCAAFHSETPNLADDFEGCVFDYHNVATQFCDSPEVDYKLFRSVTLAWDNSARRGKRATILRNFSLTSYAQWLLTACKATLADHNLTENERLVFINCMERMGRGHLSGAGHQIWLWIPGSHKKGAECILGWKTQAIRNRSKL | failed
13 | MEVMRGVRVIEGMNGGRFPYCNVVVVGDVVIDAGAGLEVMRKVNASLLVLSHLHPDHSSGAWLFKDVLAPAEGRITLDTLARRFVAPDLVESWKRFISAATGLREFECERYEEGVVVKEPEIVAVPVKGHTMDHHVFLIEQKVLFGADVDLTSFGPFYGNPEADPYLFEREMDKLLDIDFEIFVSAHSKPVFGKEEAEGRILEFKRKIKEREEIILSLLEEPKSLDELVELSPIYGRKPYAKEILDFFERVMIEKHIEKLEMEGRVRKEDGKYVRV | failed
14 | MSSPYILVLYYSRHGATAEMARQIARGVEQGGFEARVRTVPAVSTECEAVAPDIPAEGALYATLEDLKNCAGLALGSPTRFGNMASPLKYFLDGTSSLWLTGSLVGKPAAVFTSTASLHGGQETTQLSMLLPLLHHGMLVLGIPYSEPALLETRGGGTPYGASHFAGADGKRSLDEHELTLCRALGKRLAETAGKLGS | not failed
15 | MKRRYSILIILLVAIFYRMITFRFKYLLGYDPYFHLAYIEEVNKVGKWINFLTFAGGPWGYQVKLFHPLGLWMTPLYLYKLLKVFGVSLTTTFKITPVIFGVLTVIFLYLSLLKLYDEKRAFFGGFFLAISYGHVFRSMANYYRGDNYMLFWYSVALLGISLALGIKKGKWKYKRLIFYTLPVLASGFSAIFWQAYYPIFAFLLSNALLLAVGAFILKKDKYLLDSIILILSTAFGVLLANYLGGIFGYGMLGYAKWLGKSVAKKLGLEFGYLKDVYLILHLKYLVPISLSFVLVLILLGFLTKDIRIRSLFLGIASFIGIIILFKRFEALKELSTGFGIFKEAPILETQPTSFKDLWAAFSLSFFLTPLFFIRFKKPRVEDFLTLGLIIPSVYMLKTWTRFLFIGSMAIAIMSGIGIVELYEAIKPRLNGKKALATGIITLVILPGVIAGLSFKEVCSLHPEMNEAWERALKWLKNNSNENDVILAWWDWGHFITYYARRSPIAQGGPSVGVALYLLGKLNENWAINLGVDYVIVSYYDFLKFGAILSTANLSKRYNIRGYGLVVLPLRASTGALIFENRGYRAIVRHDKSWNAVIIYNGQMIYPRKLYVEHKEGVQEIKPPESNSNTYLYVNLNYGYAIFMNGNAFNTTLVRLFITPEKPYKLVYSDGGLIKIFKLEHPNVKVERRESNVILNFENGTSLGLYFFLDNGTMVLSKWYNVKGKNEFIVPKVNASVARYVLKRGKKVVDRGVFRLSYN | failed
16 | MTTIFIEKATILDAEKLTEIMTRTFDEEEKRWLCGQGDVIDYNIQPPGYSSVEMMRYSIEELDCYKVIMDGKIIGGIIVTISGKSYGRIDRIFVEPVYQGKGIGSYVIKLIEEEYPSIRIWDLETSSRQLNNHHFYKKMGYETIFKSEDEYCYVKRIT | failed
17 | MNSPANITDPLVLFMPSGKRGRFPVGTPVLDAARQLGVYVESVCGGRATCGRCQIEVQEGNFAKHKIVSSNDHISPKGPKEERYERVRGLPERRRLSCSAQILGDLVIDVPQDTVINALEHHHHHH | failed
18 | MDKPILKDSMKLFEALGTIKSRSMFGGFGLFADETMFALVVNNQLHIRADQQTSSDFETQGLKPYVYKKRGFPVVTKYYAISSELWESSDRLIEVAKKSLENAKL | not failed
19 | MPDADVNDFELVDVDQKAADKAIKDLGVKATIDEVCTVGEEGYVVTATDKEGYGGDIKITVGITADGTINGISILSISETAGLGMRATEPAFYEQYQGKQAEKFVVSKDGGDGEPIDALSGATITSRAVTGAVNAALGYYQNAFLEHHHHHH | not failed
